According to the supplement of paper PMC9170038:

Tested on: MS2 coat protein
Test: apparent KD of MS2 coat protein; designed switch direction (-1 OFF switch, 1 ON switch): -1; higher = weaker reporter binding
In short: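 Apparent KD, taken as the median over clusters for each design, was obtained by curve-fitting normalised cluster fluorescence. Designed RNA switches had been transcribed on Illumina chips by stalled E. coli RNA polymerase and titrated with SNAP-549-labelled MS2 coat protein, doubling from 0.7 or 1.5 nM to 3 µM.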

[1] = Eterna round: R95, input ligand: FMN 200 uM
[2] = Eterna round: R95, input ligand: microRNA oligo, concentration not stated
[3] = Eterna round: R95, input ligand: none
[4] = input ligand: microRNA oligo, concentration not stated

Row | Sequence | apparent KD of MS2 coat protein [1] | apparent KD of MS2 coat protein [2] | apparent KD of MS2 coat protein [3] | apparent KD of MS2 coat protein (input ligand: FMN 200 uM) | apparent KD of MS2 coat protein [4] | apparent KD of MS2 coat protein (input ligand: none)
1 | CGUACUGAAGUGAGGAUAUUGUCUCGGAUACGAAACAAGAAGGCACAUGAGGAUCACCCAUGUAGACAGUACGA [Malc #30 mod 2] (puzzle: Brourd's mod of Exclusion 4) | 15.1 nM | 17.3 nM | 15.7 nM |  |  | 
2 | UAUUAGCAAGUAAGGUCCCACAUGAGGAUCACCCAUGUGCUCGUCUUAUAAGGUACUGUGACGAAAGUCACGGUACC [Sensor 3, v1 - 95] (Eterna round: R96, puzzle: Sensor v3, turn-off variant 1) |  |  |  | 22 nM | 326 nM | 23.6 nM
3 | AAAAAAAAGAUAGGAUAUUAGAAAAAAAUGGUGAUAGAGACAUGAGGAUCACCCAUGUAAAAAAAUAAGAAGGGUCAAAAAAAA [AK ExNG2-V2-5] (Eterna round: R96, puzzle: Exclusion NG 2) |  |  |  | 322 nM | 298 nM | 362 nM
4 | AGCCACAGAGGAUAUACAUACAUCCAGUGGUUAAGAAUACUACAUGAGGAUCACCCAUGUAGAAGGCUGUGGCA [Omei Ex2 BD B11] (Eterna round: R97, puzzle: Exclusion 2) |  |  |  | 108 nM |  | 22.4 nM
5 | UAAAGAUAAGGAUAUUGAAGGUUCGACAUGAGGAUCACCCAUGUUAUGUUGGAAAAGGGACAAGAAGGUAUGAAAU [salish99_ex5_r4_207] (Eterna round: R97, puzzle: Exclusion 5) |  |  |  | 35.9 nM |  | 37 nM
6 | CCCUUUCAGGCAGGAUAUGUUCAUUUGUGAAUGGUGCCUACCUCACAUGAGGAUCACCCAUGUGGACAGAAGGGCCGGUGAAAA [Eternabot solution 26] (Eterna round: R96, puzzle: Exclusion NG 2) |  |  |  | 120 nM | 25.5 nM | 25.7 nM
7 | GCAGCGUAGUCCAAAUAGGACAUACAUGAGGAUCACCCAUGUCAGGAUAUGGUCUGGAUUACAGGCCAGAAGGGACAAAGCUGC [Eli exng3 - 003] (Eterna round: R96, puzzle: Exclusion NG 3) |  |  |  | 19 nM | 15.8 nM | 26 nM
8 | CCAGGCAGUGUGAGGAUAUGCUGGUGGAUACAUCAGCAGAAGGCACAUGAGGAUCACCCAUGUGAAGAGCUUGG [Mat - Exclusion 4 - JL Mod - D99] (puzzle: Brourd's mod of Exclusion 4) | 136 nM | 19 nM | 20.5 nM |  |  | 
9 | CAAAAGCUAGGAUAUACAUGAGGAUCACCCAUGUAUAGGUGGGCAGUUCUUAUCAAACGUAGAAGGAGCAUAAA [Uslaisan] (puzzle: Exclusion 3) | 39.2 nM | 17.5 nM | 16.6 nM |  |  | 
10 | ACAUGAGGAUCACCCAUGUUUUUUGGGUACUCUUGAUACAGCAAGGAUAUGCAUUAUUUAUGUACGCAGAAGGUGCAUUACGUC [JR_ExcNG3_Sub063] (Eterna round: R96, puzzle: Exclusion NG 3) |  |  |  |  | 837 nM | 
11 | CGACCCAUCAUAGGAUAUCACAGCACGGGAGAAAGUCUGAGGCGUCAACAUGAGGAUCACCCAUGUGAGAAGGAUGGUGGGCAG [Eternabot solution 17] (Eterna round: R96, puzzle: Exclusion NG 2) |  |  |  | 120 nM | 184 nM | 162 nM
12 | UCACGGGUUUGAGGAUAUAUAUUUAUUAUUUUAAUAGAAGGCAAAGAGAUAGUUUUUUCACUAUACAUGAGGAUCACCCAUGUU [JR_ExcNG1_Sub087] (Eterna round: R96, puzzle: Exclusion NG 1) |  |  |  |  | 27.6 nM | 
13 | AUGGGUACUUUCGGAGCGACAUGAGGAUCACCCAUGUAUAUUGAGGAUAUCCACUGCUAAGGACGGGAGAAGGCAGUGUACUGU [Ex NG3 #82] (Eterna round: R96, puzzle: Exclusion NG 3) |  |  |  | 73.3 nM | 42.9 nM | 54.2 nM
14 | AAAUAACAAGCGAGAUCCUACAUGAGGAUCACCCAUGUGCUCGUCUUAACAAGUACUAUCACGAAAGUGAUAGUACA [Mat - Sensor v3 - turn-off var 1 - Eli Mod - D69] (puzzle: Sensor v3, turn-off variant 1) | 17.5 nM | 59.4 nM | 12.1 nM |  |  | 
15 | CCUCGUAGGGAGGAUAUCCUUUAAAUUUAAGGAGGAGAAGGCUCAACAUGAGGAUCACCCAUGUAAAAUUUAAA [-17, -14.8 kcal, A 36%] (Eterna round: R97, puzzle: Exclusion 6) |  |  |  | 109 nM |  | 78.7 nM
16 | CCUAUGUGAGGAUAUCACUGGUCUUCUCACUGGAUGAUUAGUGAGAAGGCACAUGAGGAUCACCCAUGUCGGUG [Ex4 - 3 - 51] (Eterna round: R96, puzzle: Exclusion 4) |  |  |  | 633 nM | 482 nM | 
17 | UUGUGCACGCUGCGAUCCUACAUGAGGAUCACCCAUGUGGUCUGGUGGCGUGGGUCACCGGACUUGGCUCGUCUUGG [salish99_S_TOV1_R5_076] (Eterna round: R97, puzzle: Sensor, turn-off variant 1) |  |  |  | 126 nM |  | 138 nM
18 | UAACAAAUGGUCAGGAUAUCAUUCCCGGCCCAGAGUGAGAAGGGACAUGAGGAUCACCCAUGUGUGAUUCUCAU [jl-ex4-4.55 ViennaUCT mod] (Eterna round: R97, puzzle: Brourd's mod of Exclusion 4) |  |  |  | 128 nM |  | 97.1 nM
19 | GAGCCUAAUGUAGGAUAUCGAGGUCGGUGACGUCGAGAAGGACAUGAGGAUCACCCAUGUCGUAGCGGCGGGAACGCUGCUACG [first try -36 kcal] (Eterna round: R96, puzzle: Exclusion NG 1) |  |  |  | 82.9 nM | 147 nM | 274 nM
20 | UAUUAGAGAGGAUAUAUGAUGUGAAACAUGAGGAUCACCCAUGUAAUAUUAUGGAUGUAAAUAGAAGGCUCAUUUA [Mat - Exclusion 5 - JL mod - D15] (puzzle: Exclusion 5) | 47.4 nM | 77.5 nM | 80.2 nM |  |  | 
21 | UCGGCGCGAGGAUAUGCGGCUGGUGCUUCGGGCUCUGGCGUACAUGAGGAUCACCCAUGUAGAAGGCGCGCCGC [Apr-15 SS2-42] (puzzle: Exclusion 2) |  | 10.5 nM |  |  |  | 
22 | UUGCAGUCGUCAGGAUAUAGUAUUACGGCCUUUCAUUUCUUCAUACAUGAGGAUCACCCAUGUCGCUAGAAGGGAUUAUCGCUU [salish99_ExNG2_r04_107] (Eterna round: R96, puzzle: Exclusion NG 2) |  |  |  | 16.4 nM | 14.6 nM | 20.6 nM
23 | UGUUGUUACGUAGGAUAUCCACCAACAGGUGGAAGGAUAUGUACGCAGAAGGUUCGCCAACAGGCGGAGAAGGACGGGUUAACA [pwkr exNG2 2xF7 2xFMN.27] (Eterna round: R96, puzzle: Exclusion NG 2) |  |  |  | 1370 nM | 473 nM | 300 nM
24 | UAGUACAGAGGAUAUACAUGAGGAUCACCCAUGUGUUUCAGCUAGGAGACUAGCGAAAGUAGAAGGCUGUACUU [salish99_ex3_r4_009] (Eterna round: R97, puzzle: Exclusion 3) |  |  |  | 22.4 nM |  | 8.4 nM
